Here are results for one molecule from patent publication US20080085859A1, “Drug Promoting Ceramide Transport, Base Sequence for Producing the Drug, Method of Measuring Activity of Promoting Ceramide Release and Method of Measuring Activity of Promoting Intermembrane Ceramide Transfer” (JAPAN SCIENCE AND TECHNOLOGY AGENCY, priority 2003, published 2008).

The nature of experiment [1]: releasing reaction assay with other lipids as substrate (specificity). In kind it is biochemical. As to conditions: FIG. 15. The method, then:
Hereinafter, the standard method will be described in detail, however, even if the described conditions are changed, a method of detecting ceramide release promotion activity having means for separating releasing ceramide by a centrifugation principally belongs to the present invention. The lipid membrane containing ceramide was prepared so that it contains 12.5 nCi (225 pmol) per sample of [palmitoyl-1-^14C]N-palmitoyl-D-ethyro-sphigosine (hereinafter, may be referred to as ^14C-ceramide) on the basis of the mixed lipid consisting of phosphatidylcholine and phosphatidylethanolamine derived from egg yolk at the ratio of 4:1 and its concentration becomes 2.5 mg/mL. This lipid membrane is required at the rate of 20 μL per one sample of the activity measurement. […]
hCERT protein or its recombinant protein described above as a protein sample to be targeted (under the standard conditions, the amount of protein corresponding to 450 picomoles, which is 2-fold molar equivalent amount of ceramide contained in the donating membrane was used) were messed up to 30 μL using the buffer 2 [50 mM Hepes-NaOH buffer (pH7.4) to which 100 mM NaCl and 0.5 mM EDTA have been added]. […] The activity for promoting ceramide release with hCERT was calculated by measuring the radioactive activity of ^14C in the supernatant fraction using a liquid scintillation counter. […]

Experiment [2] deals with LY-A2 cell. Nature of the experiment: cell labeling using C5-DMB-Cer and fluorescence microscopy (ER to Golgi apparatus). As to conditions: C5-DMB-Cer, traced at 33° C. 15 minutes, LY-A2/hCERT, FIG. 6. In kind it is cell-based, Chinese hamster. The method, then: The present inventors have already made it clear that the activity of ATP dependent transport from the endoplasmic reticulum of natural ceramide (hereinafter, also referred to as ER) to Golgi apparatus can be qualitatively evaluated from the analysis of reallocation from ER of C5-DMB-Cer which is a fluorescent ceramide analogue to Golgi apparatus (J. Cell Biol. 144,673-685, 1999). As described in detail, the cell was exposed to C5-DMB-Cer at 4° C. for 30 minutes for the purpose of performing the pulse labeling of a variety of organelle membranes within a cell containing ER, after washing, it was traced at 33° C. for 15 minutes by a fluorescene microscopy observation method. A method of performing cell labeling using C5-DMB-Cer and a method of performing an observation by a fluorescence microscopy were carried out by a method of Yasuda et al (J. Biol. Chem. 276, 43994-44002, 2001) and a method of Fukasawa et al (J. Cell Biol. 144, 673-685, 1999). Specifically, after CHO-K1 cell, LY-A2 cell and LY-A2/hCERT cell grown on a coverslip made of glass were treated at 4° C. for 30 minutes in F12 medium containing 1 micro-M C5-DMB-Cer, it was washed three times in 1 mL of F12 medium. […] The sample was observed under the fluorescence microscopy immediately after it has been fixed and photographed with a digital CCD camera.

B1: hCERT protein: human CERT protein having an amino acid sequence of SEQ ID NO:1 (protein)
chain: MSDNQSWNSSGSEEDPETESGPPVERCGVLSKWTNYIHGWQDRWVVLKNNALSYYKSEDETEYGCRGSICLSKAVITPHDFDECRFDISVNDSVWYLRAQDPDHRQQWIDAIEQHKTESGYGSESSLRRHGSMVSLVSGASGYSATSTSSFKKGHSLREKLAEMETFRDILCRQVDTLQKYFDACADAVSKDELQRDKVVEDDEDDFPTTRSDGDFLHSTNGNKEKLFPHVTPKGINGIDFKGEAITFKATTAGILATLSHCIELMVKREDSWQKRLDKETEKKRRTEEAYKNAMTELKKKSHFGGPDYEEGPNSLINEEEFFDAVEAALDRQDKIEEQSQSEKVRLHWPTSLPSGDAFSSVGTHRFVQKVEEMVQNHMTYSLQDVGGDANWQLVVEEGEMKVYRREVEENGIVLDPLKATHAVKGVTGHEVCNYFWNVDVRNDWETTIENFHVVETLADNAIIIYQTHKRVWPASQRDVLYLSVIRKIPALTENDPETWIVCNFSVDHDSAPLNNRCVRAKINVAMICQTLVSPPEGNQEISRDNILCKITYVANVNPGGWAPASVLRAVAKREYPKFLKRFTSYVQEKTAGKPILF
modifications: HeLa cell
In the case of B1, the “diacylglycerol releasing promotion, of the activity with respect to ceramide” value in experiment [1] is reported as “about 5%”. For the same molecule, the “releasing reaction with respect to diacylglycerol, cholesterol, phosphatidylcholine, sphingomyelin, sphingosine” value in experiment [1] (substrate changed from ceramide to other lipids) was “did not indicate a significant releasing reaction”. In experiment [2], the “accumulation of DMB fluorescence to Golgi apparatus region” value is “accumulation comparable to CHO-K1 cell”.
